Results reported in the supplement of paper PMC11246515.
± gives the standard deviation of the averaged measurements.

Assay: total protein half-life in vivo (active degradation + dilution); higher = more stable protein
[1] = E. coli NCM3722 delta-clpP, growth: N-lim chemostat, doubling time 6 h
[2] = E. coli NCM3722 delta-hslV, growth: N-lim chemostat, doubling time 6 h
[3] = E. coli NCM3722 delta-lon, growth: N-lim chemostat, doubling time 6 h
[4] = E. coli NCM3722 delta-smpB, growth: N-lim chemostat, doubling time 6 h
[5] = wild type E. coli NCM3722, growth: C-lim chemostat, doubling time 3 h
[6] = wild type E. coli NCM3722, growth: C-lim chemostat, doubling time 6 h
[7] = wild type E. coli NCM3722, growth: C-lim chemostat, doubling time 12 h
[8] = wild type E. coli NCM3722, growth: N-lim chemostat, doubling time 6 h
[9] = wild type E. coli NCM3722, growth: N-lim chemostat, doubling time 12 h
[10] = wild type E. coli NCM3722, growth: P-lim chemostat, doubling time 6 h
[11] = wild type E. coli NCM3722, growth: P-lim chemostat, doubling time 12 h
[12] = E. coli NCM3722 delta-clpP delta-lon delta-hslV, growth: N-lim chemostat, doubling time 6 h

Row | Sequence | total protein half-life in vivo [1] [h] | total protein half-life in vivo [2] [h] | total protein half-life in vivo [3] [h] | total protein half-life in vivo [4] [h] | total protein half-life in vivo [5] [h] | total protein half-life in vivo [6] [h] | total protein half-life in vivo [7] [h] | total protein half-life in vivo [8] [h] | total protein half-life in vivo [9] [h] | total protein half-life in vivo [10] [h] | total protein half-life in vivo [11] [h] | total protein half-life in vivo [12] [h]
1 | MADWVTGKVTKVQNWTDALFSLTVHAPVLPFTAGQFTKLGLEIDGERVQRAYSYVNSPDNPDLEFYLVTVPDGKLSPRLAALKPGDEVQVVSEAAGFFVLDEVPHCETLWMLATGTAIGPYLSILQLGKDLDRFKNLVLVHAARYAADLSYLPLMQELEKRYEGKLRIQTVVSRETAAGSLTGRIPALIESGELESTIGLPMNKETSHVMLCGNPQMVRDTQQLLKETRQMTKHLRRRPGHMTAEHYW | 3.93 ± 0.36 | 4.14 ± 0.33 | 4.64 ± 0.33 | 3.83 ± 0.12 | 2.888 ± 0.0031 | 5.62 ± 0.29 | 10.8 ± 0.21 | 4.29 ± 0.31 | 6.73 ± 0.41 | 5.609 ± 0.031 | 11.3 ± 0.53 | –
2 | MLPSISINNTSAAYPESINENNNDEVNGLVQEFKNLFNGKEGISTCIKHLLELIKNAIRVNDDPYRFNINNSSVTYIDIDSNDTDHITIGIDNQEPIELPANYKDKELVRTIINDNIVEKTHDINNKEMIFSALKEIYDGDPGFIFDKISHKLRHTVTEFDESGKSEPTDLFTWYGKDKKGDSLAIVIKNKNGNDYLSLGYYDQDDYHIQRGIRINGDSLTQYCSENARSASAWFESSKAIMAESFATGSDHQVVNELNGERLREPNDVFKRYGRAIRYDFQVDDAKYKCDHLKEIVSTLVGNKINVGHSQKIYKHFKDLEGKIEERLQNRQAEYQNEINQPSAPGVNFDDI | – | – | – | – | – | – | – | 5.3 | – | – | – | –
3 | MIAEFESRILALIDGMVDHASDDELFASGYLRGHLTLAIAELESGDDHSAQAVHTTVSQSLEKAIGAGELSPRDQALVTDMWENLFQQASQQ | 3.35 ± 0.41 | 2.9 ± 0.23 | 3.81 ± 0.062 | 2.1 ± 0.046 | 2.2 ± 0.23 | 3.39 ± 0.1 | 4.87 ± 0.25 | 2.71 ± 0.54 | 3.79 | 2.75 ± 0.83 | 4.58 ± 0.62 | 4.91 ± 0.31
4 | MTLWINGDWITGQGASRVKRNPVSGEVLWQGNDADAAQVEQACRAARAAFPRWARLSFAERHAVVERFAALLESNKAELTAIIARETGKPRWEAATEVTAMINKIAISIKAYHVRTGEQRSEMPDGAASLRHRPHGVLAVFGPYNFPGHLPNGHIVPALLAGNTIIFKPSELTPWSGEAVMRLWQQAGLPPGVLNLVQGGRETGQALSALEDLDGLLFTGSANTGYQLHRQLSGQPEKILALEMGGNNPLIIDEVADIDAAVHLTIQSAFVTAGQRCTCARRLLLKSGAQGDAFLARLVAVSQRLTPGNWDDEPQPFIGGLISEQAAQQVVTAWQQLEAMGGRPLLAPRLLQAGTSLLTPGIIEMTGVAGVPDEEVFGPLLRVWRYDTFDEAIRMANNTRFGLSCGLVSPEREKFDQLLLEARAGIVNWNKPLTGAASTAPFGGIGASGNHRPSAWYAADYCAWPMASLESDSLTLPATLNPGLDFSDEVVR | 3.93 ± 0.27 | 3.9 ± 0.23 | 4.05 ± 0.23 | 3.9 ± 0.34 | 3.01 ± 0.28 | 5.5 ± 0.65 | 10.05 ± 0.096 | 3.67 ± 0.23 | 6.26 ± 0.56 | 5.78 ± 0.31 | 12.1 ± 1.7 | 5.21 ± 0.42
5 | MTQQPQAKYRHDYRAPDYQITDIDLTFDLDAQKTVVTAVSQAVRHGASDAPLRLNGEDLKLVSVHINDEPWTAWKEEEGALVISNLPERFTLKIINEISPAANTALEGLYQSGDALCTQCEAEGFRHITYYLDRPDVLARFTTKIIADKIKYPFLLSNGNRVAQGELENGRHWVQWQDPFPKPCYLFALVAGDFDVLRDTFTTRSGREVALELYVDRGNLDRAPWAMTSLKNSMKWDEERFGLEYDLDIYMIVAVDFFNMGAMENKGLNIFNSKYVLARTDTATDKDYLDIERVIGHEYFHNWTGNRVTCRDWFQLSLKEGLTVFRDQEFSSDLGSRAVNRINNVRTMRGLQFAEDASPMAHPIRPDMVIEMNNFYTLTVYEKGAEVIRMIHTLLGEENFQKGMQLYFERHDGSAATCDDFVQAMEDASNVDLSHFRRWYSQSGTPIVTVKDDYNPETEQYTLTISQRTPATPDQAEKQPLHIPFAIELYDNEGKVIPLQKGGHPVNSVLNVTQAEQTFVFDNVYFQPVPALLCEFSAPVKLEYKWSDQQLTFLMRHARNDFSRWDAAQSLLATYIKLNVARHQQGQPLSLPVHVADAFRAVLLDEKIDPALAAEILTLPSVNEMAELFDIIDPIAIAEVREALTRTLATELADELLAIYNANYQSEYRVEHEDIAKRTLRNACLRFLAFGETHLADVLVSKQFHEANNMTDALAALSAAVAAQLPCRDALMQEYDDKWHQNGLVMDKWFILQATSPAANVLETVRGLLQHRSFTMSNPNRIRSLIGAFAGSNPAAFHAEDGSGYLFLVEMLTDLNSRNPQVASRLIEPLIRLKRYDAKRQEKMRAALEQLKGLENLSGDLYEKITKALA | 4.45 ± 0.1 | 4.27 ± 0.086 | 4.48 ± 0.29 | 4.38 ± 0.084 | 3.05 ± 0.19 | 5.55 ± 0.11 | 10.5 ± 0.56 | 4.36 ± 0.11 | 6.63 ± 0.16 | 5.89 ± 0.069 | 11.3 ± 0.68 | 5.11 ± 0.53
6 | MFENITAAPADPILGLADLFRADERPGKINLGIGVYKDETGKTPVLTSVKKAEQYLLENETTKNYLGIDGIPEFGRCTQELLFGKGSALINDKRARTAQTPGGTGALRVAADFLAKNTSVKRVWVSNPSWPNHKSVFNSAGLEVREYAYYDAENHTLDFDALINSLNEAQAGDVVLFHGCCHNPTGIDPTLEQWQTLAQLSVEKGWLPLFDFAYQGFARGLEEDAEGLRAFAAMHKELIVASSYSKNFGLYNERVGACTLVAADSETVDRAFSQMKAAIRANYSNPPAHGASVVATILSNDALRAIWEQELTDMRQRIQRMRQLFVNTLQEKGANRDFSFIIKQNGMFSFSGLTKEQVLRLREEFGVYAVASGRVNVAGMTPDNMAPLCEAIVAVL | 4.02 ± 0.34 | 3.88 ± 0.059 | 4.44 ± 0.22 | 3.789 ± 0.034 | 3.16 ± 0.23 | 5.555 ± 0.041 | 10.29 ± 0.024 | 3.86 ± 0.14 | 5.97 ± 0.14 | 5.69 ± 0.19 | 11.84 ± 0.03 | 4.59 ± 0.58
7 | MLVVELIIVLLAIFLGARLGGIGIGFAGGLGVLVLAAIGVKPGNIPFDVISIIMAVIAAISAMQVAGGLDYLVHQTEKLLRRNPKYITILAPIVTYFLTIFAGTGNISLATLPVIAEVAKEQGVKPCRPLSTAVVSAQIAITASPISAAVVYMSSVMEGHGISYLHLLSVVIPSTLLAVLVMSFLVTMLFNSKLSDDPIYRKRLEEGLVELRGEKQIEIKSGAKTSVWLFLLGVVGVVIYAIINSPSMGLVEKPLMNTTNAILIIMLSVATLTTVICKVDTDNILNSSTFKAGMSACICILGVAWLGDTFVSNNIDWIKDTAGEVIQGHPWLLAVIFFFASALLYSQAATAKALMPMALALNVSPLTAVASFAAVSGLFILPTYPTLVAAVQMDDTGTTRIGKFVFNHPFFIPGTLGVALAVCFGFVLGSFML [P0ABN5] | 6.38 ± 0.28 | – | – | 5.933 ± 0.026 | > 4 | 6.25 | – | – | – | 6.8 ± 0.54 | 12.4 ± 0.89 | 5.71
